Laboratory results taken from patent US20230398184A1, “METHODS OF INDUCING STEM CELL MOBILIZATION” (NeoImmuneTech, Inc., priority 2020, published 2023).

Legend:
Format in all cases: in vivo, C57BL/6 mice
LSK cells and HSCs [1] = test: IL-7 and AMD3100 combination, HSC mobilization into peripheral blood; conditions: IL-7 0.5 mg/kg day 0; AMD3100 5 mg/kg 1 hour prior to analysis; day 3
Procedure: As described herein, AMD3100 (CXCR4 antagonist) is another regimen that is commonly used to promote the migration of HSCs from the bone marrow into the peripheral blood. Cashen et al., Future Oncol 3(1): 19-27 (February 2007). To determine whether IL-7 can also enhance the HSC mobilization effects of AMD3100, C57BL/6 animals received a single subcutaneous administration of the following: (i) buffer alone, (ii) IL-7 alone (0.5 mg/kg), (iii) AMD3100 (5 mg/kg), and (iv) IL-7 (0.5 mg/kg) in combination with AMD3100 (5 mg/kg). […] At day 3 post initial administration, the number of both LSK cells and HSCs were again assessed in the peripheral blood using flow cytometry.

LSK cells and HSCs [2] = test: Comparison of IL-7 with G-CSF and G-CSF + AMD3100 on mobilization of HSCs to peripheral blood; conditions: PEG-rhG-CSF 5 μg s.c. day 3; rhG-CSF 6.25 μg/day days 0-3
Procedure: As described herein, granulocyte colony stimulating factor (G-CSF) is a standard regimen used in the clinic to induce HSC mobilization. Therefore, the potency of IL-7 was compared to that of G-CSF on inducing the mobilization of HSCs to peripheral blood was assessed. Briefly, C57BL/6 mice were treated with one of the following: (i) control buffer (“control”), (ii) IL-7 protein (“IL-7”) (2.5 mg/kg; subcutaneous), (iii) long-acting pegylated recombinant human G-CSF (“PEG-rhG-CSF”) (5 μg; subcutaneous), or (iv) non-pegylated recombinant human G-CSF (“rhG-CSF”) (twice a day (6.25 μg/day) at days 0, 1, 2, and 3 (i.e., total dose of 25 μg/mouse); subcutaneous). In animals treated with the IL-7 protein or PEG-rhG-CSF, the number of LSK cells and HSCs was determined in the peripheral blood at day 3 post administration. In animals treated with rhG-CSF, the number of LSK cells and HSCs in the peripheral blood was assessed within 6-8 hours after last rhG-CSF administration.
In this regard, the potency of IL-7 protein alone to the G-CSF+AMD3100 combinational regimen was next compared. Briefly, normal C57BL/6 mice were administered with one of the following: (i) control buffer, (ii) IL-7 protein alone, (iii) pegylated recombinant human G-CSF (“G-CSF”), or (iv) G-CSF in combination with AMD3100. Then, the number of HSCs in the peripheral blood was assessed at day 3 post administration.

LSK cells and HSCs [3] = test: IL-7 and G-CSF combination, HSC mobilization into peripheral blood; conditions: IL-7 0.5 mg/kg or G-CSF 5 μg s.c., day 3
Procedure: To determine whether the combined treatment of IL-7 and G-CSF can further improve the mobilization of HSCs into the peripheral blood, C57BL/6 animals received a single subcutaneous administration of one of the following: (i) buffer alone, (ii) IL-7 alone (0.5 mg/kg), (iii) pegylated recombinant human G-CSF alone (5 μg), and (iv) IL-7 (0.5 mg/kg) in combination with G-CSF (5 μg). Then, at day 3 post administration, both the number of LSK cells and HSCs in the peripheral blood were assessed using flow cytometry.

Molecule	amount of LSK cells and HSCs in peripheral blood vs control (LSK cells and HSCs [1])	efficacy of mobilization, the two types of G-CSF compared (LSK cells and HSCs [2])	amount of LSK cells in peripheral blood vs buffer alone (LSK cells and HSCs [3])
c1cc(CN2CCCNCCNCCCNCC2)ccc1CN1CCCNCCNCCCNCC1 [AMD3100]	comparable to that of the control animals		
PEG-rhG-CSF: long-acting pegylated recombinant human G-CSF (protein, UniProt P09919 31-207, looked up, PEG) Granulocyte …: TPLGPASSLPQSFLLKCLEQVRKIQGDGAALQEKLVSECATYKLCHPEELVLLGHSLGIPWAPLSSCPSQALQLAGCLSQLHSGLFLYQGLLQALEGISPELGPTLDTLQLDVADFATTIWQQMEELGMAPALQPTQGAMPAFASAFQRRAGGVLVASHLQSFLEVSYRVLRHLAQP		comparable efficacy of mobilization	increased amount
rhG-CSF: non-pegylated recombinant human G-CSF (protein, UniProt P09919 31-207, looked up) Granulocyte …: TPLGPASSLPQSFLLKCLEQVRKIQGDGAALQEKLVSECATYKLCHPEELVLLGHSLGIPWAPLSSCPSQALQLAGCLSQLHSGLFLYQGLLQALEGISPELGPTLDTLQLDVADFATTIWQQMEELGMAPALQPTQGAMPAFASAFQRRAGGVLVASHLQSFLEVSYRVLRHLAQP		comparable efficacy of mobilization	
